Source: paper PMC8524200, “Structural studies of codeinone reductase reveal novel insights into aldo-keto reductase function in benzylisoquinoline alkaloid biosynthesis” (The Journal of Biological Chemistry, 2021)

Biological target: the molecule itself
Assay: SEC; Superdex 200 (2.4 ml), 25 mM Tris-HCl pH 7.5, 150 mM KCl, 0.5 mM EDTA; COR1.3 0.5 mg/ml diluted in running buffer and incubated overnight at room temperature (oxidizing conditions); also run with 1 mM DTT in the buffer (reducing conditions: dimer destabilized)

B1: codeinone reductase COR1.3 isoform (enzyme, Papaver somniferum)
chain: MESNGVPMITLSSGIRMPALGMGTAETMVKGTEREKLAFLKAIEVGYRHFDTAAAYQSEECLGEAIAEALQLGLIKSRDELFITSKLWCADAHADLVLPALQNSLRNLKLDYLDLYLIHHPVSLKPGKFVNEIPKDHILPMDYKSVWAAMEECQTLGFTRAIGVCNFSCKKLQELMAAAKIPPVVNQVEMSPTLHQKNLREYCKANNIMITAHSVLGAICAPWGSNAVMDSKVLHQIAVARGKSVAQVSMRWVYQQGASLVVKSFNEGRMKENLKIFDWELTAENMEKISEIPQSRTSSADFLLSPTGPFKTEEEFWDEKD
modifications: intermolecular disulfide bond between Cys-220 of each protomer
notes: codeinone reductase isoform COR1.3, Papaver somniferum (AAF13738; Q9SQ68.1); The methods for size-exclusion chromatography say only 'purified COR1.3'; also called apo-COR
stoichiometry N: 2
